# Laboratory results: patent publication US20190282673A1, “STAPHTAME ACTIVITY ON BIOFILMS” (priority 2016, published 2019)
# Columns and labels:
# [1] = system: S. epidermidis B9470 persisters; assay: P128 and antibiotic activity on persisters (CFU); format: cell-based, Staphylococcus epidermidis; settings: 1×MIC, P128 1 h, antibiotics 6 h
# Method: Persisters were generated as above were treated with P128 and antibiotics (Ref: Gutiérrez, et al. (2014) Effective Removal of Staphylococcal Biofilms by the Endolysin LysH5 PLoS One 9(9): e107307).
# To 450 μL aliquots, P128. Daptomycin and Vancomycin (in saline) were added (individually) each at 1×MIC Conc., and another 450 μL aliquot was taken as control. The persister samples treated with P128 were incubated for 1 h, 37° C., and 200 rpm and those treated with antibiotics were incubated for 6 h, 37° C., and 200 rpm. After incubation samples were serially log diluted and plated.
# [2] = system: S. epidermidis, S. lugdunensis and S. haemolyticus biofilms; assay: CoNS biofilm eradication, crystal violet staining; format: cell-based; settings: for Activity on preformed biofilm, crystal violet: 250 and 100 μg/mL for 4 h, all three CoNS
# Method: Dis. 209:1469-78 was followed. Briefly, S. epidermidis, S. lugdunensis and S. haemolyticus strains were inoculated into TSB with 2% glucose and the cultures were grown overnight. The cultures were diluted 1:50 in TSB to achieve an OD600˜0.1. Two hundred micro liter of the diluted culture was added to 1.8 ml of TSB media aliquoted into each well of a 24 well plate (˜5×10^5 CFU). The plates were kept at 37° C. under static conditions for 18 h, the contents were aspirated, the wells were washed twice with 2.0 ml of 1×PBS, and 1 mL of media+1 mL of the drug was added to each well and incubated at 37° C. for 0, 2, 4, and 24 h. TSB supplemented with 50 μg/ml Ca^++ was used for daptomycin treatment wells. The contents were aspirated out at the stipulated time points and the wells were washed with 2 ml of 1×PBS. The wells were allowed to dry at 37° C. for 15 min and stained with 1 mL of 1% CV for 5 min. The wells were washed with 1 mL of 1×PBS, air dried and observed for intensity of blue color.
# 0.1% CV was used for staining biofilms. Post staining and washing steps, 1 mL 30% acetic acid is added to each well, incubated in RT for 5-10 min, contents in the well are mixed thoroughly and OD was read at 570 nm.
# S. aureus biofilms = assay: MBIC and checkerboard synergy on preformed biofilm (MTT assay); format: cell-based, Staphylococcus aureus; settings: for MIC (drug alone) on biofilm: S. aureus MW2 72 h preformed biofilm, 6 hr treatment; for Activity on biofilms: S. aureus MW2 biofilm, drug alone
# Method: […] LB supplemented with 50 μg/mL CaCl2 was used for daptomycin treatment wells. The contents of the well was aspirated out and discarded. The biofilm adhered to the wells was quantified by MTT assay as described above. The MBIC was defined as the minimum concentration of P128 or the drug showing no colour development. […] In each experiment, in addition to the combination MBIC, the MBIC of each drug was also determined individually. The fractional MBIC concentrations were determined by MTT dye method as described above. The FICI and synergy was also calculated in a similar manner.
# The ability of P128 to inhibit growth of S. aureus in a preformed biofilm was measured by determining minimum biofilm inhibition concentration (MBIC), defined as minimum concentration showing growth inhibition in a MTT based assay. […] 11:226.
# The assay was optimized using the standard S. aureus strain ATCC 29213. An overnight-grown culture of the strain was diluted 1:40 in LB broth 200 μL of diluted culture was aliquoted into microtiter plate wells. Microplates were placed in a shaker-incubator set to 37° C., and 100 rpm for 24 h followed by 48 h incubation under static conditions at 37° C. The contents of one set of four wells were aspirated and discarded. Wells were washed twice with 1×PBS and the presence of biofilm in the wells at the end of this 72-hour period was determined by metabolic dye-reduction assay method using MTT (3-(4, 5-dimethylthiazol-5-diphenyltetrazolium bromide; Himedia). In this assay, live cells reduce the dye leading to color formation which can be read at 570 nm, and the intensity of color can be correlated to number of live cells. 100 μL of PBS was added to the wells along with 10 μL of MTT solution. The plate was incubated for 2 h in the dark. After this, 110 μL of solvent solution solubilizing agent was added and the plate was incubated for 15 minutes at ambient temperature with gentle agitation. The absorbance was read at 570 nm in a microplate reader. Another set of four wells was processed for harvesting the biofilm and determination of CFUs present by plating on solid media. For biofilm inhibitory studies, the wells were washed twice with 1×PBS and challenged with various concentrations of P128 or other antibiotic drugs and incubated for 24 h at 37° C. The contents of the well was aspirated out and discarded. The biofilm adhered to the wells was quantified by MTT assay as described above. The MBIC was defined as the minimum concentration of P128 or the drug showing no colour development. […] In each experiment, in addition to the combination MBIC, the MBIC of each drug was also determined individually. The fractional MBIC concentrations were determined by MTT dye method as described above. The FICI and synergy was also calculated in a similar manner.
# In order to determine whether P128 could synergize with known anti-Staphylococcus drugs to inhibit S. aureus in biofilms. […] The assays were performed in a 96 well checkerboard format using various concentrations of P128 and one of the antibiotics.
# [3] = Table 4, S. aureus ATCC 29213 preformed biofilm, 6 h
# [4] = Table 4, S. aureus ATCC 29213 preformed biofilm, 24 h
# [5] = Table 4, S. aureus B9241 preformed biofilm, 6 h
# [6] = Table 4, S. aureus B9241 preformed biofilm, 24 h
# [7] = Table 4, S. aureus BK1 preformed biofilm, 6 h
# [8] = Table 4, S. aureus BK1 preformed biofilm, 24 h
molecule,measurement,setting,value
"CN[C@H](CC(C)C)C(=O)N[C@H]1C(=O)N[C@@H](CC(N)=O)C(=O)N[C@H]2C(=O)N[C@H]3C(=O)N[C@H](C(=O)N[C@H](C(=O)O)c4cc(O)cc(O)c4-c4cc3ccc4O)[C@H](O)c3ccc(c(Cl)c3)Oc3cc2cc(c3O[C@@H]2O[C@H](CO)[C@@H](O)[C@H](O)[C@H]2O[C@H]2C[C@](C)(N)[C@H](O)[C@H](C)O2)Oc2ccc(cc2Cl)[C@H]1O [Vancomycin, vancomycin]",CFU/mL after treatment of persisters,[1]; B9470 Daptomycin persisters,5 × 10^5 CFU/mL
same,CFU/mL after treatment of persisters,[1]; B9470 Vancomycin persisters,1.5 × 10^3 CFU/mL
same,"Activity on preformed biofilm, crystal violet",[2],poor activity
same,MIC (drug alone) on biofilm,S. aureus biofilms,250 µg/mL
same,Activity on biofilms,S. aureus biofilms,poorly effective
same,MBIC (individual),S. aureus biofilms; [3],7.8 µg/mL
same,MBIC (individual),S. aureus biofilms; [4],218.75 µg/mL
same,MBIC (individual),S. aureus biofilms; [5],31.25 µg/mL
same,MBIC (individual),S. aureus biofilms; [6],125 µg/mL
same,MBIC (individual),S. aureus biofilms; [7],31.25 µg/mL
same,MBIC (individual),S. aureus biofilms; [8],250 µg/mL
"CCCCCCCCCC(=O)N[C@@H](Cc1c[nH]c2ccccc12)C(=O)N[C@H](CC(N)=O)C(=O)N[C@@H](CC(=O)O)C(=O)N[C@@H]1C(=O)NCC(=O)N[C@@H](CCCN)C(=O)N[C@@H](CC(=O)O)C(=O)N[C@H](C)C(=O)N[C@@H](CC(=O)O)C(=O)NCC(=O)N[C@H](CO)C(=O)N[C@@H]([C@H](C)CC(=O)O)C(=O)N[C@@H](CC(=O)c2ccccc2N)C(=O)O[C@@H]1C [Daptomycin, daptomycin]",CFU/mL after treatment of persisters,[1]; B9470 Daptomycin persisters,1.3 × 10^6 CFU/mL
same,CFU/mL after treatment of persisters,[1]; B9470 Vancomycin persisters,2.1 × 10^2 CFU/mL
same,"Activity on preformed biofilm, crystal violet",[2],poor activity
same,MIC (drug alone) on biofilm,S. aureus biofilms,31.2 µg/mL
same,Activity on biofilms,S. aureus biofilms,relatively better activity
"CC(=O)NC[C@H]1CN(c2ccc(N3CCOCC3)c(F)c2)C(=O)O1 [Linezolid, linezolid]","Activity on preformed biofilm, crystal violet",[2],poor activity
same,MIC (drug alone) on biofilm,S. aureus biofilms,>500 µg/mL
same,Activity on biofilms,S. aureus biofilms,poorly effective
"P128: anti-staphylococcal chimeric protein: phage tail associated muralytic enzyme (TAME) cell wall-degrading region plus staphylococcus-specific binding region; SEQ ID NO: 1 (protein, P128 chimera) MSLDSLKKYNGKLPKHDPSFVQPGNRHYKYQCTWYAYNRRGQLGIPVPLWGDAADWIGGAKGAGYGVGRTPKQGACVIWQRGVQGGSPQYGHVAFVEKVLDGGKKIFISEHNYATPNGYGTRTIDMSSAIGKNAQFIYDKKLETPNTGWKTNKYGTLYKSESASFTPNTDIITRTTGPFRSMPQSGVLKAGQTIHYDEVMKQDGHVWVGYTGNSGQRIYLPVRTWNKSTNTLGVLWGTIK",CFU/mL after treatment of persisters,[1]; B9470 Daptomycin persisters,2.5 × 10^2 CFU/mL
same,CFU/mL after treatment of persisters,[1]; B9470 Vancomycin persisters,7 × 10^1 CFU/mL
same,Removal of visual biomass,"[2]; P128 8 μg/mL (1×MIC), SOC antibiotics 250×MIC or 100×MIC",removed all visual biomass
same,Time of treatment to eliminate the biofilms,[2]; P128 at 1×MIC (8 μg/mL),≤ 2 h
same,OD570 of crystal violet vs cell control,"[2]; even after 24 h, all three CoNS sp.",significant drop in OD
same,MBIC fold higher than planktonic MIC,"S. aureus biofilms; 2 h assay, sensitive and resistant strains of S. aureus",1-4 fold
same,MBIC,"S. aureus biofilms; S. aureus 8325-4 biofilm, 2 h",7.8 µg/mL
same,MBIC,"S. aureus biofilms; S. aureus 8325-4 biofilm, 4 h",15.6 µg/mL
same,MBIC,"S. aureus biofilms; S. aureus 8325-4 biofilm, 6 h",15.6 µg/mL
same,MBIC,"S. aureus biofilms; S. aureus 8325-4 biofilm, 8 h",31.25 µg/mL
same,MBIC,"S. aureus biofilms; S. aureus 8325-4 biofilm, 24 h",1000 µg/mL
same,MBIC,"S. aureus biofilms; S. aureus ATCC 29213 biofilm, 2 h",3.9 µg/mL
same,MBIC,"S. aureus biofilms; S. aureus ATCC 29213 biofilm, 4 h",15.6 µg/mL
same,MBIC,"S. aureus biofilms; S. aureus ATCC 29213 biofilm, 6 h",15.6 µg/mL
same,MBIC,"S. aureus biofilms; S. aureus ATCC 29213 biofilm, 8 h",15.6 µg/mL
same,MBIC,"S. aureus biofilms; S. aureus ATCC 29213 biofilm, 24 h",250 µg/mL
same,MBIC,"S. aureus biofilms; S. aureus B9241 biofilm, 2 h",15.6 µg/mL
same,MBIC,"S. aureus biofilms; S. aureus B9241 biofilm, 4 h",125 µg/mL
same,MBIC,"S. aureus biofilms; S. aureus B9241 biofilm, 6 h",125 µg/mL
same,MBIC,"S. aureus biofilms; S. aureus B9241 biofilm, 8 h",125 µg/mL
same,MBIC,"S. aureus biofilms; S. aureus B9241 biofilm, 24 h",>1000 µg/mL
same,MBIC,"S. aureus biofilms; S. aureus B9356 biofilm, 2 h",7.8 µg/mL
same,MBIC,"S. aureus biofilms; S. aureus B9356 biofilm, 4 h",15.6 µg/mL
same,MBIC,"S. aureus biofilms; S. aureus B9356 biofilm, 6 h",31.25 µg/mL
same,MBIC,"S. aureus biofilms; S. aureus B9356 biofilm, 8 h",62 µg/mL
same,MBIC,"S. aureus biofilms; S. aureus B9356 biofilm, 24 h",>1000 µg/mL
same,MBIC,"S. aureus biofilms; S. aureus BK1 biofilm, 2 h",15.6 µg/mL
same,MBIC,"S. aureus biofilms; S. aureus BK1 biofilm, 4 h",31.25 µg/mL
same,MBIC,"S. aureus biofilms; S. aureus BK1 biofilm, 6 h",31.25 µg/mL
same,MBIC,"S. aureus biofilms; S. aureus BK1 biofilm, 8 h",31.25 µg/mL
same,MBIC,"S. aureus biofilms; S. aureus BK1 biofilm, 24 h",1000 µg/mL
same,MIC (drug alone) on biofilm,S. aureus biofilms,6.25 µg/mL
same,MBIC (individual),S. aureus biofilms; [3],6.04 µg/mL
same,MBIC (individual),S. aureus biofilms; [4],200 µg/mL
same,MBIC (individual),S. aureus biofilms; [5],105.15 µg/mL
same,MBIC (individual),S. aureus biofilms; [6],>1000 µg/mL
same,MBIC (individual),S. aureus biofilms; [7],28.95 µg/mL
same,MBIC (individual),S. aureus biofilms; [8],400 µg/mL
